Data: patent CN105330739A

Molecular target: huVEGF 165 (human)
Test: indirect ELISA, huVEGF coated at 0.5 ug/ml, four-parameter fit

Chain of huVEGF 165 (human) (chain, as listed by the source, form in doubt): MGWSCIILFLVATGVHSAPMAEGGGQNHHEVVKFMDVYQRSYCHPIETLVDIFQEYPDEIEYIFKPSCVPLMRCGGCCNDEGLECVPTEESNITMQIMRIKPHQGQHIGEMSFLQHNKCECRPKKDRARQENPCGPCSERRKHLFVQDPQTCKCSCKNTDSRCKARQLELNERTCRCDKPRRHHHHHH

EC50: 0.19 nM
Substance: 商品化贝伐单抗(avastin) (antibody)
